Measurements as given in the supplement of paper PMC11136658.

System: peptide library, one residue held at a place counted from the Y acceptor
Test: relative phosphorylation of the sub-library (ratio to the mean residue at this position); higher = residue favoured
Method in brief: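 Within 384-well plates, purified recombinant kinases phosphorylated biotinylated Tyr-centred peptide library mixtures over 90 min using 50 μM ATP spiked with γ-32P-ATP; each mixture fixed one residue at one position from −5 to +5. Streptavidin membrane capture, rinsing, phosphorimaging and ImageQuant gave the intensities. These were normalized per position to the sum of the 18 randomized residues (16 for the Ser/Thr-free library) and multiplied by that number.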

Chain of TNNI3K, construct: aa1-727, human (Q59H18 1-727, looked up): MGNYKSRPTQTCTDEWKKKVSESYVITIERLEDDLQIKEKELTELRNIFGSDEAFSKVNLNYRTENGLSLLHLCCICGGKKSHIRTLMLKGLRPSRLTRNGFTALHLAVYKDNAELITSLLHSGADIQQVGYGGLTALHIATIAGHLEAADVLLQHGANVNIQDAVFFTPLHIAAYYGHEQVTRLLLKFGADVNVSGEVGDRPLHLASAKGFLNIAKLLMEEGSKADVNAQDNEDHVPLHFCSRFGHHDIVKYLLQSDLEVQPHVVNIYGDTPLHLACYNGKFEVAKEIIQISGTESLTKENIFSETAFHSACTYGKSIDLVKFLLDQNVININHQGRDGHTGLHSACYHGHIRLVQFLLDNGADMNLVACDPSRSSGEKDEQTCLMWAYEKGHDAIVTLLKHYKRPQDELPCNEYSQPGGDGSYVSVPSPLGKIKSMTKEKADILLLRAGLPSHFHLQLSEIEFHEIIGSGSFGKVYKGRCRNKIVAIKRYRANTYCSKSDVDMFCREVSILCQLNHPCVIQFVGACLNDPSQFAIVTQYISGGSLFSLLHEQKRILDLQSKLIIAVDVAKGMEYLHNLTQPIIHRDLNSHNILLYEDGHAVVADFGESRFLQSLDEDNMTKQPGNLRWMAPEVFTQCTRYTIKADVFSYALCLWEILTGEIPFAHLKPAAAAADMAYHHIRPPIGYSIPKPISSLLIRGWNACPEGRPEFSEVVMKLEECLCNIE
Chain of YES1, construct: Full length, human (P07947 whole entry, looked up): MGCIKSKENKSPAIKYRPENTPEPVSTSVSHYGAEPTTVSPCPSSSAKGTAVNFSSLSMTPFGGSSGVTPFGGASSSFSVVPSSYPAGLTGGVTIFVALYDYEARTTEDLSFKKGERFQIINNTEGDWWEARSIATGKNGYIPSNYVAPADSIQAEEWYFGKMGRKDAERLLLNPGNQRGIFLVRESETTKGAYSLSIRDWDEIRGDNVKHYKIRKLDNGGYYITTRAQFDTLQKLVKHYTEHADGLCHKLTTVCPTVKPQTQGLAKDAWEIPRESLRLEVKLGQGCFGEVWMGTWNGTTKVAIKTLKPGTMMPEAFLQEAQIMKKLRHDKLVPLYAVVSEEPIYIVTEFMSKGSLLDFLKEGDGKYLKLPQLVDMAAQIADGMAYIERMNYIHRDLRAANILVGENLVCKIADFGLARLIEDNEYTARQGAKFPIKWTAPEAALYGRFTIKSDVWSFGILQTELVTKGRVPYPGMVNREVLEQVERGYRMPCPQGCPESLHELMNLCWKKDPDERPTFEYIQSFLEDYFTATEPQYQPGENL

PTK6, construct: Full length, human (from UniProt Q13882)
relative phosphorylation
Conditions | at +1 | at +2 | at +3 | at +4 | at +5 | at -1 | at -2 | at -3 | at -4 | at -5
A fixed | 0.945 | 0.766 | 0.805 | 0.972 | 0.852 | 0.665 | 0.982 | 0.951 | 1.08 | 1.03
D fixed | 0.404 | 0.528 | 1.01 | 0.758 | 0.874 | 0.64 | 1.12 | 1.18 | 1.33 | 1.15
E fixed | 1.42 | 0.424 | 0.846 | 0.904 | 0.956 | 0.542 | 1.27 | 1.79 | 1.39 | 1.17
F fixed | 0.732 | 1.11 | 1.43 | 1.22 | 1.45 | 2.44 | 0.78 | 1.19 | 1.12 | 1.07
G fixed | 1.13 | 0.736 | 1.32 | 1.11 | 1.02 | 0.288 | 1.28 | 0.942 | 1.12 | 1.07
H fixed | 0.786 | 0.574 | 1.3 | 1.05 | 0.954 | 1.52 | 1.18 | 1.04 | 1.04 | 0.925
I fixed | 1.23 | 1.12 | 0.957 | 0.798 | 1.12 | 3.11 | 0.824 | 0.81 | 0.822 | 0.888
K fixed | 0.652 | 0.804 | 0.718 | 0.949 | 0.775 | 0.283 | 0.529 | 0.728 | 0.697 | 0.917
L fixed | 0.869 | 1.47 | 0.689 | 0.813 | 1.06 | 1.62 | 0.881 | 0.879 | 0.919 | 0.99
M fixed | 1.02 | 1.51 | 0.755 | 1.09 | 1.08 | 0.805 | 0.702 | 0.867 | 0.843 | 0.948
N fixed | 0.91 | 1.04 | 0.812 | 0.784 | 0.878 | 0.587 | 1.17 | 1.25 | 1.22 | 1.11
P fixed | 0.223 | 1.1 | 0.995 | 1.35 | 1.36 | 0.774 | 0.976 | 0.869 | 1.11 | 1.1
Q fixed | 1.32 | 0.607 | 0.763 | 1.01 | 0.75 | 0.43 | 0.998 | 0.811 | 0.977 | 0.995
R fixed | 1.07 | 1.12 | 0.985 | 1.17 | 0.853 | 0.261 | 0.631 | 0.86 | 0.821 | 0.997
S fixed | 1.24 | 0.902 | 0.97 | 0.871 | 0.837 | 0.418 | 1.2 | 0.962 | 0.833 | 0.863
T fixed | 1.64 | 0.587 | 0.732 | 0.72 | 0.818 | 0.83 | 0.814 | 0.84 | 0.637 | 0.778
V fixed | 1.48 | 0.616 | 0.863 | 0.884 | 0.898 | 1.43 | 0.855 | 0.705 | 0.742 | 0.632
W fixed | 0.938 | 2.98 | 2.04 | 1.55 | 1.46 | 1.35 | 1.81 | 1.33 | 1.3 | 1.38
pThr fixed | 0.711 | 0.441 | 0.759 | 0.797 | 0.891 | 0.57 | 0.79 | 0.848 | 0.878 | 1.08
pTyr fixed | 1.06 | 0.75 | 1.06 | 1.28 | 1.08 | 3.6 | 1.01 | 1.21 | 1.15 | 1.14

TNNI3K, construct: aa1-727, human (from UniProt Q59H18)
relative phosphorylation
Conditions | at +1 | at +2 | at +3 | at +4 | at +5 | at -1 | at -2 | at -3 | at -4 | at -5
A fixed | 1.74 | 0.816 | 0.787 | 0.992 | 0.912 | 1.78 | 1.09 | 0.969 | 1.16 | 1.17
D fixed | 0.328 | 0.35 | 0.376 | 0.377 | 0.577 | 1.18 | 0.589 | 0.741 | 0.664 | 0.668
E fixed | 0.277 | 0.288 | 0.455 | 0.35 | 0.483 | 1.23 | 0.717 | 0.683 | 0.757 | 0.538
F fixed | 0.587 | 0.975 | 1.03 | 1.01 | 1.04 | 0.637 | 0.998 | 1.12 | 1.05 | 1.09
G fixed | 0.605 | 0.86 | 0.909 | 1.12 | 0.791 | 1.1 | 1.34 | 1.34 | 1.5 | 1.35
H fixed | 0.57 | 1.04 | 1.22 | 0.997 | 1.04 | 0.943 | 1.18 | 1.13 | 1.04 | 0.979
I fixed | 2.26 | 0.78 | 0.929 | 0.945 | 0.795 | 0.572 | 1.03 | 0.914 | 0.894 | 0.958
K fixed | 0.896 | 1.83 | 1.68 | 1.24 | 1.76 | 0.641 | 0.992 | 0.982 | 1.22 | 1.22
L fixed | 0.79 | 0.65 | 1.02 | 1.11 | 1.01 | 0.477 | 0.805 | 0.863 | 0.949 | 1.06
M fixed | 0.914 | 0.661 | 0.751 | 1.1 | 0.948 | 0.553 | 0.738 | 0.781 | 0.853 | 0.787
N fixed | 0.62 | 0.853 | 0.837 | 0.74 | 0.85 | 1.44 | 1.02 | 0.99 | 0.765 | 0.77
P fixed | 0.555 | 0.774 | 0.847 | 1.21 | 1.06 | 1.13 | 0.928 | 1.27 | 1.11 | 1.18
Q fixed | 0.746 | 0.978 | 1.13 | 0.952 | 0.861 | 1.24 | 1.05 | 0.815 | 0.925 | 0.808
R fixed | 1.23 | 2.79 | 2.39 | 1.73 | 1.98 | 0.687 | 1.4 | 1.07 | 1.25 | 1.21
V fixed | 2.88 | 0.736 | 0.835 | 0.979 | 0.83 | 0.701 | 0.996 | 1.05 | 0.947 | 0.98
W fixed | 0.784 | 1.39 | 0.892 | 1.27 | 1.08 | 0.579 | 1.11 | 1.37 | 1.27 | 1.46
pThr fixed | 0.215 | 0.234 | 0.259 | 0.263 | 0.44 | 0.253 | 0.593 | 0.715 | 0.515 | 0.622
pTyr fixed | 0.365 | 0.427 | 0.38 | 0.365 | 0.583 | 0.479 | 0.832 | 1.21 | 0.898 | 0.776

YES1, construct: Full length, human (from UniProt P07947)
relative phosphorylation
Conditions | at +1 | at +2 | at +3 | at +4 | at +5 | at -1 | at -2 | at -3 | at -4 | at -5
A fixed | 1.59 | 1.07 | 0.621 | 0.835 | 0.959 | 0.583 | 0.987 | 0.821 | 0.944 | 0.967
D fixed | 0.822 | 0.636 | 0.492 | 0.759 | 0.76 | 0.641 | 1.35 | 1.7 | 1.42 | 1.35
E fixed | 1.32 | 1.28 | 0.546 | 0.885 | 0.867 | 0.819 | 1.41 | 2.16 | 1.57 | 1.1
F fixed | 0.723 | 1.08 | 2.83 | 1.24 | 1.13 | 0.652 | 0.57 | 0.794 | 0.731 | 0.861
G fixed | 2.83 | 0.751 | 0.668 | 1.01 | 0.957 | 0.569 | 1.11 | 1.04 | 1.25 | 1.03
H fixed | 0.8 | 0.71 | 1 | 1.12 | 1.07 | 0.733 | 1.27 | 1.03 | 1.02 | 1.02
I fixed | 0.589 | 1.15 | 1.52 | 0.814 | 0.675 | 3.12 | 0.56 | 0.559 | 0.75 | 0.675
K fixed | 0.418 | 0.721 | 0.552 | 1.06 | 1.19 | 0.468 | 0.873 | 0.697 | 0.989 | 1.23
L fixed | 0.596 | 1.08 | 1.46 | 0.866 | 0.841 | 1.71 | 0.679 | 0.66 | 0.951 | 0.719
M fixed | 1.11 | 1.19 | 1.01 | 1.29 | 0.932 | 0.974 | 0.727 | 0.74 | 0.952 | 0.834
N fixed | 0.644 | 0.791 | 0.657 | 0.899 | 1.09 | 0.463 | 1.4 | 1.39 | 1.01 | 1.35
P fixed | 0.462 | 0.724 | 0.518 | 0.785 | 1.37 | 1.3 | 1.31 | 1.02 | 1.12 | 1.22
Q fixed | 0.897 | 1 | 0.599 | 1.17 | 1.01 | 0.521 | 1.18 | 1.15 | 1.09 | 1.1
R fixed | 0.538 | 0.951 | 0.913 | 1.36 | 1.51 | 0.399 | 0.95 | 0.76 | 1.01 | 1.16
S fixed | 1.13 | 1.3 | 0.672 | 0.938 | 1.07 | 0.518 | 1.31 | 1.08 | 0.846 | 0.949
T fixed | 1.08 | 1.44 | 0.908 | 1.01 | 1 | 1.51 | 0.968 | 0.862 | 0.727 | 0.908
V fixed | 0.892 | 1.3 | 1.37 | 0.842 | 0.749 | 2.26 | 0.663 | 0.558 | 0.857 | 0.783
W fixed | 1.54 | 0.815 | 1.67 | 1.11 | 0.821 | 0.766 | 0.69 | 0.979 | 0.762 | 0.755
pThr fixed | 1.21 | 1.33 | 0.497 | 0.667 | 0.674 | 1.07 | 1.1 | 1.13 | 1.07 | 1.17
pTyr fixed | 2.21 | 1.24 | 0.636 | 0.841 | 0.739 | 0.806 | 1.21 | 1.18 | 1.27 | 1.2
